B1: ERBB receptor feedback inhibitor 1 (Homo sapiens), Q9UJM3 (parent)
chain: MSIAGVAAQEIRVPLKTGFLHNGRAMGNMRKTYWSSRSEFKNNFLNIDPITMAYSLNSSAQERLIPLGHASKSAPMNGHCFAENGPSQKSSLPPLLIPPSENLGPHEEDQVVCGFKKLTVNGVCASTPPLTPIKNSPSLFPCAPLCERGSRPLPPLPISEALSLDDTDCEVEFLTSSDTDFLLEDSTLSDFKYDVPGRRSFRGCGQINYAYFDTPAVSAADLSYVSDQNGGVPDPNPPPPQTHRRLRRSHSGPAGSFNKPAIRISNCCIHRASPNSDEDKPEVPPRVPIPPRPVKPDYRRWSAEVTSSTYSDEDRPPKVPPREPLSPSNSRTPSPKSLPSYLNGVMPPTQSFAPDPKYVSSKALQRQNSEGSASKVPCILPIIENGKKVSSTHYYLLPERPPYLDKYEKFFREAEETNGGAQIQPLPADCGISSATEKPDSKTKMDLGGHVKRKHLSYVVSP
partner: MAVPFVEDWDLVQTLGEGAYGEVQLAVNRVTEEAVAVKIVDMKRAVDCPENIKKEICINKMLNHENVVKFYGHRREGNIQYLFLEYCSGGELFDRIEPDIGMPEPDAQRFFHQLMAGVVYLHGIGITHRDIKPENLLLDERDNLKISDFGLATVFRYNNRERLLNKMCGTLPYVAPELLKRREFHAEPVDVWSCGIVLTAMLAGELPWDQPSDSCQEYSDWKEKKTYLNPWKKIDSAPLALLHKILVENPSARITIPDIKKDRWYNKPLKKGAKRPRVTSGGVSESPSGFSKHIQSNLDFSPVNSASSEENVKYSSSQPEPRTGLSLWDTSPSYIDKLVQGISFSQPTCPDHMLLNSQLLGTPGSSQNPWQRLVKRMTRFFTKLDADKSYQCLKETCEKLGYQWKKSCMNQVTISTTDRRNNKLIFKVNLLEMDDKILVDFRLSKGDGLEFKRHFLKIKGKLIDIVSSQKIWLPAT

Variants of: B1
Conditions: with chk1_human CHEK1, O14757

Variant	effect of a mutation on the interaction
MSIAGVAAQEIRVPLKTGFLHNGRAMGNMRKTYWSSRSEFKNNFLNIDPITMAYSLNSSAQERLIPLGHASKSAPMNGHCFAENGPSQKSSLPPLLIPPSENLGPHEEDQVVCGFKKLTVNGVCASTPPLTPIKNSPSLFPCAPLCERGSRPLPPLPISEALSLDDTDCEVEFLTSSDTDFLLEDSTLSDFKYDVPGRRSFRGCGQINYAYFDTPAVSAADLSYVSDQNGGVPDPNPPPPQTHRRLRRAHSGPAGSFNKPAIRISNCCIHRASPNSDEDKPEVPPRVPIPPRPVKPDYRRWSAEVTSSTYSDEDRPPKVPPREPLSPSNSRTPSPKSLPSYLNGVMPPTQSFAPDPKYVSSKALQRQNSEGSASKVPCILPIIENGKKVSSTHYYLLPERPPYLDKYEKFFREAEETNGGAQIQPLPADCGISSATEKPDSKTKMDLGGHVKRKHLSYVVSP [S249A]	decreasing interaction
MSIAGVAAQEIRVPLKTGFLHNGRAMGNMRKTYWSSRSEFKNNFLNIDPITMAYSLNSSAQERLIPLGHASKSAPMNGHCFAENGPSQKSSLPPLLIPPSENLGPHEEDQVVCGFKKLTVNGVCASTPPLTPIKNSPSLFPCAPLCERGSRPLPPLPISEALSLDDTDCEVEFLTSSDTDFLLEDSTLSDFKYDVPGRRSFRGCGQINYAYFDTPAVSAADLSYVSDQNGGVPDPNPPPPQTHRRLRRSHAGPAGSFNKPAIRISNCCIHRASPNSDEDKPEVPPRVPIPPRPVKPDYRRWSAEVTSSTYSDEDRPPKVPPREPLSPSNSRTPSPKSLPSYLNGVMPPTQSFAPDPKYVSSKALQRQNSEGSASKVPCILPIIENGKKVSSTHYYLLPERPPYLDKYEKFFREAEETNGGAQIQPLPADCGISSATEKPDSKTKMDLGGHVKRKHLSYVVSP [S251A]	decreasing interaction

Variants of: B1
Conditions: with chk1_human CHEK1, O14757
Remark: another data set of the same source

Variant	effect of a mutation on the interaction
MSIAGVAAQEIRVPLKTGFLHNGRAMGNMRKTYWSSRSEFKNNFLNIDPITMAYSLNSSAQERLIPLGHASKSAPMNGHCFAENGPSQKSSLPPLLIPPSENLGPHEEDQVVCGFKKLTVNGVCASTPPLTPIKNSPSLFPCAPLCERGSRPLPPLPISEALSLDDTDCEVEFLTSSDTDFLLEDSTLSDFKYDVPGRRSFRGCGQINYAYFDTPAVSAADLSYVSDQNGGVPDPNPPPPQTHRRLRRSHSGPAGSFNKPAIRISNCCIHRASPNSDEDKPEVPPRVPIPPRPVKPDYRRWAAEVTSSTYSDEDRPPKVPPREPLSPSNSRTPSPKSLPSYLNGVMPPTQSFAPDPKYVSSKALQRQNSEGSASKVPCILPIIENGKKVSSTHYYLLPERPPYLDKYEKFFREAEETNGGAQIQPLPADCGISSATEKPDSKTKMDLGGHVKRKHLSYVVSP [S302A]	decreasing interaction
MSIAGVAAQEIRVPLKTGFLHNGRAMGNMRKTYWSSRSEFKNNFLNIDPITMAYSLNSSAQERLIPLGHASKSAPMNGHCFAENGPSQKSSLPPLLIPPSENLGPHEEDQVVCGFKKLTVNGVCASTPPLTPIKNSPSLFPCAPLCERGSRPLPPLPISEALSLDDTDCEVEFLTSSDTDFLLEDSTLSDFKYDVPGRRSFRGCGQINYAYFDTPAVSAADLSYVSDQNGGVPDPNPPPPQTHRRLRRSHSGPAGSFNKPAIRISNCCIHRASPNSDEDKPEVPPRVPIPPRPVKPDYRRWSAEVTSSTYSDEDRPPKVPPREPLSPSNSRTPAPKSLPSYLNGVMPPTQSFAPDPKYVSSKALQRQNSEGSASKVPCILPIIENGKKVSSTHYYLLPERPPYLDKYEKFFREAEETNGGAQIQPLPADCGISSATEKPDSKTKMDLGGHVKRKHLSYVVSP [S334A]	decreasing interaction
MSIAGVAAQEIRVPLKTGFLHNGRAMGNMRKTYWSSRSEFKNNFLNIDPITMAYSLNSSAQERLIPLGHASKSAPMNGHCFAENGPSQKSSLPPLLIPPSENLGPHEEDQVVCGFKKLTVNGVCASTPPLTPIKNSPSLFPCAPLCERGSRPLPPLPISEALSLDDTDCEVEFLTSSDTDFLLEDSTLSDFKYDVPGRRSFRGCGQINYAYFDTPAVSAADLSYVSDQNGGVPDPNPPPPQTHRRLRRSHSGPAGSFNKPAIRISNCCIHRASPNSDEDKPEVPPRVPIPPRPVKPDYRRWSAEVTSSTYSDEDRPPKVPPREPLSPSNSRTPSPKSLPSYLNGVMPPTQSFAPDPKYVSSKALQRQNAEGSASKVPCILPIIENGKKVSSTHYYLLPERPPYLDKYEKFFREAEETNGGAQIQPLPADCGISSATEKPDSKTKMDLGGHVKRKHLSYVVSP [S369A]	decreasing interaction
